Molecular target: the molecule itself
Assay: dynamic light scattering; 320 µM βCA1 after addition of 20 mM DTT or in the presence of 500 µM H2O2; 50 mM Na-phosphate pH 8; 25 °C; intensity converted to volume percentage

B1: β-carbonic anhydrase 1 (βCA1) from Arabidopsis thaliana (enzyme, UniProt P27140 114-347, looked up)
chain: ALQTGTSSDKKAFDPVETIKQGFIKFKKEKYETNPALYGELAKGQSPKYMVFACSDSRVCPSHVLDFQPGDAFVVRNIANMVPPFDKVKYGGVGAAIEYAVLHLKVENIVVIGHSACGGIKGLMSFPLDGNNSTDFIEDWVKICLPAKSKVISELGDSAFEDQCGRCEREAVNVSLANLLTYPFVREGLVKGTLALKGGYYDFVKGAFELWGLEFGLSETSSVKDVATILHWKL
notes: β-carbonic anhydrase 1 (βCA1, βCA1.1), Arabidopsis thaliana, UniProt P27140, At3g01500; The protein was analysed both reduced (DTT) and oxidised (H2O2); also called βCA1.1; chloroplast βCA; source: E. coli NiCo21 (DE3), purified (passage through a chitin column, Ni-NTA beads, dialysis)
How did the “stoichiometry N” value turn out when B1 was run?
Its value is 2.
